Tests used:
[1] = target: T1, cynomolgus monkey BTLA on cells (stably transfected 293c18 clone 1G5); cynomolgus peripheral blood T and B … (cynomolgus monkey, UniProt A0A2K5W7M7 31-289); test: flow cytometry on cynomolgus monkey BTLA 293c18 cells, anti-human kappa-PE detection; both lots (APE10840.03 and APE10840.04); cynomolgus BTLA 293c18 cells
T1 construct: whole, on cells; also called cynomolgus monkey BTLA 293c18 cells
T1 sequence: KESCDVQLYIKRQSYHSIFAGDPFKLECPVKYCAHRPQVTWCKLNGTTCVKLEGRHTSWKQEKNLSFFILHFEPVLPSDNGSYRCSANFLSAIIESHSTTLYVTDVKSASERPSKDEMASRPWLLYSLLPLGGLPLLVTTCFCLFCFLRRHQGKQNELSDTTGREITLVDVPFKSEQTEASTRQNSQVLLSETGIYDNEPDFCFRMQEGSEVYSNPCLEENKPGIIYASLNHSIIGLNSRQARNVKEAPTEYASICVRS
Protocol: 293c18 cell clone 1E4 stably expressing human BTLA construct or clone 1G5 stably expressing cynomolgus monkey BTLA were harvested with Accutase solution (Millipore Sigma/Sigma-Aldrich) and washed once with Phosphate-Buffered Saline, 1% BSA. 293c18 cynomolgus monkey BTLA cells were loaded with the lipophilic carbocyanine dye, DiD (2 μM, 1,1′-dioctadecyl-3,3,3′,3′-tetramenthylindodicarbocyanine; ThermoFisher Scientific) by rocking gently for 10 minutes at room temperature. DiD-stained cells were washed in PBS, 1% BSA and equal amounts of human BTLA 293c18 cells and cynomolgus monkey BTLA 293c18-DiD-stained cells were mixed. Cells (2×10⁵ total cells/sample) were incubated with the indicated concentrations of purified 6G3 IgG4 (two production lots, APE10840.03 and APE10840.04 (H Chain SEQ ID NO: 144, L Chain SEQ ID NO: 174)) or human IgG4 isotype control antibody specific for hen egg lysozyme with gentle shaking for 10 minutes at 4° C. in FACS buffer (PBS, 1% BSA, 0.02% sodium azide). […] Cells were washed and resuspended in FACS buffer and analyzed for fluorescence on a BD FACSArray (BD Biosciences). DiD stained cells expressing cynomolgus monkey BTLA (FIG. 3) were analyzed for median fluorescence intensity (MFI) separately from cells expressing human BTLA (FIG. 3). […]

[2] = target: T2, human BTLA ECD-his (monomeric human BTLA-his) (human, UniProt Q7Z6A9 31-157); test: SPR (Biacore T200), antibody captured on anti-human IgG chip, monomeric BTLA-his flowed at 60, 20, 6.7 and 2.2 nM, 1:1 binding model, 25 C [upper right panel (Hu BTLA]
T2 construct: extracellular domain; also called human BTLA extracellular domain
T2 sequence (looked up): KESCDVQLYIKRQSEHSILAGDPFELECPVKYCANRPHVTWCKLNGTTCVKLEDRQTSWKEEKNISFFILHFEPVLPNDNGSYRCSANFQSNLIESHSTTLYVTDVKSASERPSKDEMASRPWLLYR
Protocol: Surface plasmon resonance (SPR) analyses were carried out using a Biacore T200 (GE Healthcare Life Sciences). Kinetic constants were determined using a 1:1 binding model in the Biacore T200 Evaluation Software to calculate on- and off-rates (kₐ and kd, respectively), and dissociation constants as a measure of overall affinity (KD). Anti-human IgG (GE Healthcare Life Sciences) was immobilized on a CMS chip using EDC-activated amine coupling chemistry (420 seconds contact at a flow rate of 10 μl/min). Antibodies (APE10585.04 6G3 IgG1 and APE10840.05 6G3 IgG4), each at 0.5 μg/m1) were captured in a 60 second contact with the flow cell using a flow rate of 10 μl/min. Monomeric human BTLA-his or cynomolgus monkey BTLA-his at 60 nM, 20 nM, 6.7 nM and 2.2 nM concentrations was flowed over captured antibody (480 seconds association, 1800 seconds dissociation). Runs were at 25° C. and used buffer containing 10 mM HEPES, pH 7.6, 150 mM NaCl, 3 mM EDTA, 0.05% polysorbate 20 (HBS-EP+, pH 7.6; Teknova) for the mobile phase and all dilutions. At the end of each cycle, bound antigen was removed by regeneration with two successive exposures (60 seconds and 90 seconds) to 3 M MgCl2 (30 μl/min). Sensorgrams and binding constants corresponding to the experiment are shown in FIG. 1 (human BTLA) and FIG. 1 (cynomolgus monkey BTLA). Antibody capture levels in resonance units (RU) are listed at the right side of each panel.

B1: 6G3 IgG4 anti-BTLA antibody (APE10840 / APE12839 / APE13308) (antibody, V domains shown)
VH: QVQLVQSGAEVKKPGSSVKVSCKASGYVFSTSWMNWVRQAPGQGLEWMGRIYPGDADTNYVGKFKGRVTITADKSTTTAYMELSSLRSEDTAVYFCAKSGTFNFGNYRWYFDVWGKGTTVTVSS
VL: AIQLTQSPSSLSASVGDRVTITCRVSENIYSHLAWYQQKPGKAPKLLIYAATNLALGVPSRFSGSGSGTDYTLTISSLQPEDFATYYCQLFWGPPLTFGGGTKVEIKR
notes: Humanized antibody from a mouse hybridoma, tested as human IgG4 (detected with anti-human kappa); Some assays used labelled lots (DyLight 650, AF647, biotin, DyL488); also called 6G3 antibody; APE10840.03
EC50 [1]: ~2.3 nM | Kd [2]: 5.35 nM | koff [2]: 0.0003 s⁻¹ | kon [2]: 56200 M⁻¹ s⁻¹

— patent US20230391872A1 (ANAPTYSBIO, published 2023)
